From US20240261374A1, “PHARMACEUTICAL COMPOSITION AND KIT COMPRISING AN IMMUNOMODULATORY SUBSTANCE FOR TREATING DISEASES” (ellennbe GmbH, priority 2021, published 2024)

What was measured:
[1] = tested on: patient suffering from multiple sclerosis; assay: treatment of a patient: SHILD-score, relapses, fatigue; assay type: in vivo, human; details: for subject's condition in multiple sclerosis: as indicated by the SHILD-score; for SHILD-score: multiple sclerosis
[2] = tested on: ankylosing spondylitis (Bechterew's disease); assay type: in vivo, human; details: Patient 11; ended more than a year before; lost their effect within half a year
[3] = as can be seen from the examples

Row | Molecule | fatigue in case of multiple sclerosis [1, 3] | subject's condition in multiple sclerosis [1] | SHILD-score [1] | Effect of earlier treatment with biologics (patient history) [2] | relapses in case of multiple sclerosis [1, 3]
1 | BDNF: recombinant human BDNF produced in Escherichia coli, R&D Systems catalogue number 248-BDB/CF; SEQ ID NO: 4 (protein, listed as Homo sapiens, human BDNF, human brain-derived neurotrophic factor) HSDPARRGELSVCDSISEWVTAADKKTAVDMSGGTVTVLEKVPVSKGQLKQYFYETKCNPMGYTKEGCRGIDKRHWNSQCRTTQSYVRALTMDSKKRIGWRFIRIDTSCVCTLTIKRGR | very effectively relieving | stabilized or even improved | decreasing |  | 
2 | Cimzia®: biologic, certolizumab pegol (antibody, chains of the INN, looked up, V domains shown, Fab' PEG (pegol)) VH: EVQLVESGGGLVQPGGSLRLSCAASGYVFTDYGMNWVRQAPGKGLEWMGWINTYIGEPIYADSVKGRFTFSLDTSKSTAYLQMNSLRAEDTAVYYCARGYRSYAMDYWGQGTLVTVSS VL: DIQMTQSPSSLSASVGDRVTITCKASQNVGTNVAWYQQKPGKAPKALIYSASFLYSGVPYRFSGSGSGTDFTLTISSLQPEDFATYYCQQYNIYPLTFGQGTKVEIK |  |  |  | had little effect from the outset | 
3 | IL-4: recombinant human IL-4 produced in Escherichia coli, R&D Systems catalogue number 204-IL/CF; SEQ ID NO: 3 (protein, listed as Homo sapiens, human IL-4, Interleukin 4) METGLYLETHRSERGLNLELEPRPRLEPHEPHELELEALACYSALAGLYASNPHEVALHISGLYHISLYSCYSASPILETHRLEGLNGLILEILELYSTHRLEASNSERLETHRGLGLNLYSTHRLECYSTHRGLLETHRVALTHRASPILEPHEALAALASERLYSASNTHRTHRGLLYSGLTHRPHECYSARGALAALATHRVALLEARGGLNPHETYRSERHISHISGLLYSASPTHRARGCYSLEGLYALATHRALAGLNGLNPHEHISARGHISLYSGLNLEILEARGPHELELYSARGLEASPARGASNLETRPGLYLEALAGLYLEASNSERCYSPRVALLYSGLALAASNGLNSERTHRLEGLASNPHELEGLARGLELYSTHRILEMETARGGLLYSTYRSERLYSCYSSERSER | reduction | stabilization or even improvement | decreasing |  | avoiding
